Experimental data from US10584350B2, “Structurally modified COI1” (Board of Trustees of Michigan State University, priority 2016, dated 2020).

Test system: COI1-JAZ9 interaction
Assay: Y2H assays on plates for protein-protein interaction
Type: cell-based, Arabidopsis
Details: 10 μM COR, yeast
Experimental: Yeast EGY48 strain carrying the p8Op:LacZ reporter plasmid was co-transformed with pGilda:COI1 (or COI1 mutants) and pB42AD:JAZ9 (or other JAZs) (Clontech). Colonies were selected on SD minimal plates (BD Biosciences) supplemented with the—uracil (U)/-tryptophan (W)/-histidine (H) amino acid drop out solution (Clontech). Yeast colonies were cultured overnight in liquid SD-UWH medium, harvested, washed twice in sterile water, and the absorbance (OD600) of the cultures was adjusted to 0.2 in liquid SD galactose/raffinose-UWH medium (BD Biosciences).
For Y2H assays on plates, 10-μL culture was spotted onto SD galactose/raffinose-UWH plates with 80 μg/mL X-gal and 10 μM COR (Sigma-Aldrich). Blue color indicated protein-protein interactions after 5-7 days of incubation at 30° C.

Molecule | COR-dependent COI1-JAZ9 interaction
Y386: COI1 alanine substitution mutant at Y386 (protein, UniProt O04197 1-592, looked up, variant Y386A) Coronatine-insensitive …: MEDPDIKRCKLSCVATVDDVIEQVMTYITDPKDRDSASLVCRRWFKIDSETREHVTMALCYTATPDRLSRRFPNLRSLKLKGKPRAAMFNLIPENWGGYVTPWVTEISNNLRQLKSVHFRRMIVSDLDLDRLAKARADDLETLKLDKCSGFTTDGLLSIVTHCRKIKTLLMEESSFSEKDGKWLHELAQHNTSLEVLNFYMTEFAKISPKDLETIARNCRSLVSVKVGDFEILELVGFFKAAANLEEFCGGSLNEDIGMPEKYMNLVFPRKLCRLGLSYMGPNEMPILFPFAAQIRKLDLLYALLETEDHCTLIQKCPNLEVLETRNVIGDRGLEVLAQYCKQLKRLRIERGADEQGMEDEEGLVSQRGLIALAQGCQELEYMAVAVSDITNESLESIGTYLKNLCDFRLVLLDREERITDLPLDNGVRSLLIGCKKLRRFAFYLRQGGLTDLGLSYIGQYSPNVRWMLLGYVGESDEGLMEFSRGCPNLQKLEMRGCCFSERAIAAAVTKLPSLRYLWVQGYRASMTGQDLMQMARPYWNIELIPSRRVPEVNQQGEIREMEHPAHILAYYSLAGQRTDCPTTVRVLKEPI | reduced
R415: COI1 alanine substitution mutant at R415 (protein, UniProt O04197 1-592, looked up, variant R415A) Coronatine-insensitive …: MEDPDIKRCKLSCVATVDDVIEQVMTYITDPKDRDSASLVCRRWFKIDSETREHVTMALCYTATPDRLSRRFPNLRSLKLKGKPRAAMFNLIPENWGGYVTPWVTEISNNLRQLKSVHFRRMIVSDLDLDRLAKARADDLETLKLDKCSGFTTDGLLSIVTHCRKIKTLLMEESSFSEKDGKWLHELAQHNTSLEVLNFYMTEFAKISPKDLETIARNCRSLVSVKVGDFEILELVGFFKAAANLEEFCGGSLNEDIGMPEKYMNLVFPRKLCRLGLSYMGPNEMPILFPFAAQIRKLDLLYALLETEDHCTLIQKCPNLEVLETRNVIGDRGLEVLAQYCKQLKRLRIERGADEQGMEDEEGLVSQRGLIALAQGCQELEYMAVYVSDITNESLESIGTYLKNLCDFRLVLLDAEERITDLPLDNGVRSLLIGCKKLRRFAFYLRQGGLTDLGLSYIGQYSPNVRWMLLGYVGESDEGLMEFSRGCPNLQKLEMRGCCFSERAIAAAVTKLPSLRYLWVQGYRASMTGQDLMQMARPYWNIELIPSRRVPEVNQQGEIREMEHPAHILAYYSLAGQRTDCPTTVRVLKEPI | reduced
L412: COI1 alanine substitution mutant at L412 (protein, UniProt O04197 1-592, looked up, variant L412A) Coronatine-insensitive …: MEDPDIKRCKLSCVATVDDVIEQVMTYITDPKDRDSASLVCRRWFKIDSETREHVTMALCYTATPDRLSRRFPNLRSLKLKGKPRAAMFNLIPENWGGYVTPWVTEISNNLRQLKSVHFRRMIVSDLDLDRLAKARADDLETLKLDKCSGFTTDGLLSIVTHCRKIKTLLMEESSFSEKDGKWLHELAQHNTSLEVLNFYMTEFAKISPKDLETIARNCRSLVSVKVGDFEILELVGFFKAAANLEEFCGGSLNEDIGMPEKYMNLVFPRKLCRLGLSYMGPNEMPILFPFAAQIRKLDLLYALLETEDHCTLIQKCPNLEVLETRNVIGDRGLEVLAQYCKQLKRLRIERGADEQGMEDEEGLVSQRGLIALAQGCQELEYMAVYVSDITNESLESIGTYLKNLCDFRLVALDREERITDLPLDNGVRSLLIGCKKLRRFAFYLRQGGLTDLGLSYIGQYSPNVRWMLLGYVGESDEGLMEFSRGCPNLQKLEMRGCCFSERAIAAAVTKLPSLRYLWVQGYRASMTGQDLMQMARPYWNIELIPSRRVPEVNQQGEIREMEHPAHILAYYSLAGQRTDCPTTVRVLKEPI | reduced
L413: COI1 alanine substitution mutant at L413 (protein, UniProt O04197 1-592, looked up, variant L413A) Coronatine-insensitive …: MEDPDIKRCKLSCVATVDDVIEQVMTYITDPKDRDSASLVCRRWFKIDSETREHVTMALCYTATPDRLSRRFPNLRSLKLKGKPRAAMFNLIPENWGGYVTPWVTEISNNLRQLKSVHFRRMIVSDLDLDRLAKARADDLETLKLDKCSGFTTDGLLSIVTHCRKIKTLLMEESSFSEKDGKWLHELAQHNTSLEVLNFYMTEFAKISPKDLETIARNCRSLVSVKVGDFEILELVGFFKAAANLEEFCGGSLNEDIGMPEKYMNLVFPRKLCRLGLSYMGPNEMPILFPFAAQIRKLDLLYALLETEDHCTLIQKCPNLEVLETRNVIGDRGLEVLAQYCKQLKRLRIERGADEQGMEDEEGLVSQRGLIALAQGCQELEYMAVYVSDITNESLESIGTYLKNLCDFRLVLADREERITDLPLDNGVRSLLIGCKKLRRFAFYLRQGGLTDLGLSYIGQYSPNVRWMLLGYVGESDEGLMEFSRGCPNLQKLEMRGCCFSERAIAAAVTKLPSLRYLWVQGYRASMTGQDLMQMARPYWNIELIPSRRVPEVNQQGEIREMEHPAHILAYYSLAGQRTDCPTTVRVLKEPI | reduced
V411: COI1 alanine substitution mutant at V411 (protein, UniProt O04197 1-592, looked up, variant V411A) Coronatine-insensitive …: MEDPDIKRCKLSCVATVDDVIEQVMTYITDPKDRDSASLVCRRWFKIDSETREHVTMALCYTATPDRLSRRFPNLRSLKLKGKPRAAMFNLIPENWGGYVTPWVTEISNNLRQLKSVHFRRMIVSDLDLDRLAKARADDLETLKLDKCSGFTTDGLLSIVTHCRKIKTLLMEESSFSEKDGKWLHELAQHNTSLEVLNFYMTEFAKISPKDLETIARNCRSLVSVKVGDFEILELVGFFKAAANLEEFCGGSLNEDIGMPEKYMNLVFPRKLCRLGLSYMGPNEMPILFPFAAQIRKLDLLYALLETEDHCTLIQKCPNLEVLETRNVIGDRGLEVLAQYCKQLKRLRIERGADEQGMEDEEGLVSQRGLIALAQGCQELEYMAVYVSDITNESLESIGTYLKNLCDFRLALLDREERITDLPLDNGVRSLLIGCKKLRRFAFYLRQGGLTDLGLSYIGQYSPNVRWMLLGYVGESDEGLMEFSRGCPNLQKLEMRGCCFSERAIAAAVTKLPSLRYLWVQGYRASMTGQDLMQMARPYWNIELIPSRRVPEVNQQGEIREMEHPAHILAYYSLAGQRTDCPTTVRVLKEPI | reduced
D407: COI1 alanine substitution mutant at D407 (protein, UniProt O04197 1-592, looked up, variant D407A) Coronatine-insensitive …: MEDPDIKRCKLSCVATVDDVIEQVMTYITDPKDRDSASLVCRRWFKIDSETREHVTMALCYTATPDRLSRRFPNLRSLKLKGKPRAAMFNLIPENWGGYVTPWVTEISNNLRQLKSVHFRRMIVSDLDLDRLAKARADDLETLKLDKCSGFTTDGLLSIVTHCRKIKTLLMEESSFSEKDGKWLHELAQHNTSLEVLNFYMTEFAKISPKDLETIARNCRSLVSVKVGDFEILELVGFFKAAANLEEFCGGSLNEDIGMPEKYMNLVFPRKLCRLGLSYMGPNEMPILFPFAAQIRKLDLLYALLETEDHCTLIQKCPNLEVLETRNVIGDRGLEVLAQYCKQLKRLRIERGADEQGMEDEEGLVSQRGLIALAQGCQELEYMAVYVSDITNESLESIGTYLKNLCAFRLVLLDREERITDLPLDNGVRSLLIGCKKLRRFAFYLRQGGLTDLGLSYIGQYSPNVRWMLLGYVGESDEGLMEFSRGCPNLQKLEMRGCCFSERAIAAAVTKLPSLRYLWVQGYRASMTGQDLMQMARPYWNIELIPSRRVPEVNQQGEIREMEHPAHILAYYSLAGQRTDCPTTVRVLKEPI | reduced
L410: COI1 alanine substitution mutant at L410 (protein, UniProt O04197 1-592, looked up, variant L410A) Coronatine-insensitive …: MEDPDIKRCKLSCVATVDDVIEQVMTYITDPKDRDSASLVCRRWFKIDSETREHVTMALCYTATPDRLSRRFPNLRSLKLKGKPRAAMFNLIPENWGGYVTPWVTEISNNLRQLKSVHFRRMIVSDLDLDRLAKARADDLETLKLDKCSGFTTDGLLSIVTHCRKIKTLLMEESSFSEKDGKWLHELAQHNTSLEVLNFYMTEFAKISPKDLETIARNCRSLVSVKVGDFEILELVGFFKAAANLEEFCGGSLNEDIGMPEKYMNLVFPRKLCRLGLSYMGPNEMPILFPFAAQIRKLDLLYALLETEDHCTLIQKCPNLEVLETRNVIGDRGLEVLAQYCKQLKRLRIERGADEQGMEDEEGLVSQRGLIALAQGCQELEYMAVYVSDITNESLESIGTYLKNLCDFRAVLLDREERITDLPLDNGVRSLLIGCKKLRRFAFYLRQGGLTDLGLSYIGQYSPNVRWMLLGYVGESDEGLMEFSRGCPNLQKLEMRGCCFSERAIAAAVTKLPSLRYLWVQGYRASMTGQDLMQMARPYWNIELIPSRRVPEVNQQGEIREMEHPAHILAYYSLAGQRTDCPTTVRVLKEPI | reduced
R440: COI1 alanine substitution mutant at R440 (protein, UniProt O04197 1-592, looked up, variant R440A) Coronatine-insensitive …: MEDPDIKRCKLSCVATVDDVIEQVMTYITDPKDRDSASLVCRRWFKIDSETREHVTMALCYTATPDRLSRRFPNLRSLKLKGKPRAAMFNLIPENWGGYVTPWVTEISNNLRQLKSVHFRRMIVSDLDLDRLAKARADDLETLKLDKCSGFTTDGLLSIVTHCRKIKTLLMEESSFSEKDGKWLHELAQHNTSLEVLNFYMTEFAKISPKDLETIARNCRSLVSVKVGDFEILELVGFFKAAANLEEFCGGSLNEDIGMPEKYMNLVFPRKLCRLGLSYMGPNEMPILFPFAAQIRKLDLLYALLETEDHCTLIQKCPNLEVLETRNVIGDRGLEVLAQYCKQLKRLRIERGADEQGMEDEEGLVSQRGLIALAQGCQELEYMAVYVSDITNESLESIGTYLKNLCDFRLVLLDREERITDLPLDNGVRSLLIGCKKLRAFAFYLRQGGLTDLGLSYIGQYSPNVRWMLLGYVGESDEGLMEFSRGCPNLQKLEMRGCCFSERAIAAAVTKLPSLRYLWVQGYRASMTGQDLMQMARPYWNIELIPSRRVPEVNQQGEIREMEHPAHILAYYSLAGQRTDCPTTVRVLKEPI | reduced
